# Source: patent US20230002480A1
# Experiments:
# Experiment in all cases: cell-based or functional assay
# [1] = target: HIV-1 Env of pseudovirus RHPA4259.7 (HIV-1)
# [2] = target: HIV-1 Env of pseudovirus CNE30 (HIV-1)
# [3] = target: HIV-1 Env of pseudovirus 1006_11_C3_1601 (HIV-1)
# [4] = target: HIV-1 Env of pseudovirus TRO.11 (HIV-1)
# [5] = target: HIV-1 Env of pseudovirus T250-4 (HIV-1)
# [6] = target: HIV-1 Env of pseudovirus Ce1172_H1 (HIV-1)
# [7] = target: HIV-1 Env of pseudovirus 6535.3 (HIV-1)
# [8] = target: HIV-1 Env of pseudovirus X2088_c9 (HIV-1)
# [9] = target: HIV-1 Env of pseudovirus C4118.c09 (HIV-1)
# [10] = target: HIV-1 Env of pseudovirus 6244_13_B5_4576 (HIV-1)
# [11] = target: HIV-1 Env of pseudovirus Ce704809221_1B3 (HIV-1)
# [12] = target: HIV-1 Env of pseudovirus Ce2060_G9 (HIV-1)
# [13] = target: HIV-1 Env of pseudovirus 235-47 (HIV-1)
# [14] = target: HIV-1 Env of pseudovirus WITO4160.33 (HIV-1)
# [15] = target: HIV-1 Env of pseudovirus BF1266.431a (HIV-1)
# [16] = target: HIV-1 Env of pseudovirus Q259.d2.17 (HIV-1)
# [17] = target: HIV-1 Env of pseudovirus CNE58 (HIV-1)
# [18] = target: HIV-1 Env of pseudovirus 1394C9G1(Rev-) (HIV-1)
# [19] = target: HIV-1 Env of pseudovirus R1166.c01 (HIV-1)
# [20] = target: HIV-1 Env of pseudovirus Du172.17 (HIV-1)
# [21] = target: HIV-1 Env of pseudovirus 3016.v5.c45 (HIV-1)
# [22] = target: HIV-1 Env of pseudovirus HIV-16845-2.22 (HIV-1)
# [23] = target: HIV-1 Env of pseudovirus 1054_07_TC4_1499 (HIV-1)
# [24] = target: HIV-1 Env of pseudovirus QH0692.42 (HIV-1)
# [25] = target: HIV-1 Env of pseudovirus 191955_A11 (HIV-1)
# [26] = target: HIV-1 Env of pseudovirus R3265.c06 (HIV-1)
# [27] = target: HIV-1 Env of pseudovirus 0815.v3.c3 (HIV-1)
# [28] = target: HIV-1 Env of pseudovirus WEAU_d15_410_787 (HIV-1)
# [29] = target: HIV-1 Env of pseudovirus A07412M1.vrc12 (HIV-1)
# [30] = target: HIV-1 Env of pseudovirus 7030102001E5(Rev-) (HIV-1)
# [31] = target: HIV-1 Env of pseudovirus 62357_14_D3_4589 (HIV-1)
# [32] = target: HIV-1 Env of pseudovirus CAP45.2.00.G3 (HIV-1)
# [33] = target: HIV-1 Env of pseudovirus 249M B10 (HIV-1)
# [34] = target: HIV-1 Env of pseudovirus CNE17 (HIV-1)
# [35] = target: HIV-1 Env of pseudovirus BJOX009000.02.4 (HIV-1)
substance,measurement,setting,value
PGT121 (antibody),IC80,[1],0.035 µg/mL
same,IC50,[2],0.078 µg/mL
same,IC80,[2],0.291 µg/mL
same,IC50,[3],0.002 µg/mL
same,IC80,[3],0.007 µg/mL
same,IC50,[4],0.005 µg/mL
same,IC80,[4],0.025 µg/mL
same,IC50,[5],< 0.001 µg/mL
same,IC80,[5],0.005 µg/mL
same,IC80,[6],0.036 µg/mL
same,IC50,[7],0.002 µg/mL
same,IC80,[7],0.008 µg/mL
same,IC50,[8],0.003 µg/mL
same,IC80,[8],0.013 µg/mL
same,IC50,[9],> 50 µg/mL
same,IC80,[9],> 50 µg/mL
same,IC50,[10],0.061 µg/mL
same,IC80,[10],0.347 µg/mL
same,IC50,[11],0.025 µg/mL
same,IC80,[11],0.126 µg/mL
same,IC50,[12],> 50 µg/mL
same,IC80,[12],> 50 µg/mL
same,IC50,[13],0.137 µg/mL
same,IC80,[13],0.727 µg/mL
same,IC50,[14],0.334 µg/mL
same,IC80,[14],2.35 µg/mL
same,IC50,[15],> 50 µg/mL
same,IC80,[15],> 50 µg/mL
same,IC50,[16],15.4 µg/mL
same,IC80,[16],> 50 µg/mL
same,IC50,[17],> 50 µg/mL
same,IC80,[17],> 50 µg/mL
same,IC50,[18],0.264 µg/mL
same,IC80,[18],1.95 µg/mL
same,IC50,[19],> 50 µg/mL
same,IC80,[19],> 50 µg/mL
same,IC50,[20],0.033 µg/mL
same,IC80,[20],0.257 µg/mL
same,IC50,[21],> 50 µg/mL
same,IC80,[21],> 50 µg/mL
same,IC50,[22],3.97 µg/mL
same,IC80,[22],44.6 µg/mL
same,IC50,[23],0.064 µg/mL
same,IC80,[23],0.304 µg/mL
same,IC50,[24],0.302 µg/mL
same,IC80,[24],2.31 µg/mL
same,IC50,[25],> 50 µg/mL
same,IC80,[25],> 50 µg/mL
same,IC50,[26],> 50 µg/mL
same,IC80,[26],> 50 µg/mL
same,IC50,[27],0.025 µg/mL
same,IC80,[27],0.111 µg/mL
same,IC50,[28],0.026 µg/mL
same,IC80,[28],0.077 µg/mL
same,IC50,[29],0.009 µg/mL
same,IC80,[29],0.075 µg/mL
same,IC50,[30],0.009 µg/mL
same,IC80,[30],0.027 µg/mL
same,IC50,[31],2.6 µg/mL
same,IC80,[31],> 50 µg/mL
same,IC50,[32],1.63 µg/mL
same,IC80,[32],> 50 µg/mL
same,IC50,[33],> 50 µg/mL
same,IC80,[33],> 50 µg/mL
same,IC50,[34],7.6 µg/mL
same,IC80,[34],> 50 µg/mL
same,IC50,[35],2.86 µg/mL
same,IC80,[35],31.7 µg/mL
